The results in this text go back to publication PMC10104896 (2023).

Where no end group is shown, it is not given here.

The target in experiment [1] is T1, 12mTau-acK280 peptide (human).
T1 chain: VQIINK(Ac)KLDLSN
The experiment in a line: BLI. A general note: Biolayer interferometry detects binding as a change in optical thickness at a sensor tip.

Experiment [2] concerns the target T1, 12mTau-acK280 peptide. The experiment in a line: BLI.

B1: Y01, monoclonal anti–tau-acK280 antibody (antibody, V domains shown)
VH: QVQLQESGPGLVKPSQTLSLTCTVSGDSITSGYWNWIRQPPGKGLEYIGYIRYSGRTYYNPSLKSRVTISRDTSKNQFSLKLSSVTAADTAVYYCASVYFTYWGQGTLVTVSS
VL: DVVMTQTPLSLPVTLGQPASISCKSSQSLLDSDGKTYLNWFQQRPGQSPKRLISLVSKLDSGVPDRFSGSGSGTDFTLKISRVEAEDVGVYYCWQGSHFPYTFGQGTKLEIK
As to B1, binding with 12mTau-acK280 peptide [1] was characterised by a dissociation constant (Kd) of 0.257 nM. The same molecule came in with a koff in the experiment with 12mTau-acK280 peptide [2] of 0.000115 s⁻¹.

By Kd is commonly meant the equilibrium constant for the complex coming apart. Low values mean tighter binding, high ones weaker binding. What is called koff is the first-order rate constant of dissociation. Read a high koff as a short-lived complex.
